These are literature values, as cited in article PMC4237619.

In data set [1] the target is VEGF (Homo sapiens) (UniProt P15692).
The target is the same in data set [2]. The source holds these as a separate data set.
Data set [3] has the same target. The source holds these as a separate data set.

Where two headings read alike, the source gives them in different places.

Sequence of UniProt P15692 (P15692 whole entry): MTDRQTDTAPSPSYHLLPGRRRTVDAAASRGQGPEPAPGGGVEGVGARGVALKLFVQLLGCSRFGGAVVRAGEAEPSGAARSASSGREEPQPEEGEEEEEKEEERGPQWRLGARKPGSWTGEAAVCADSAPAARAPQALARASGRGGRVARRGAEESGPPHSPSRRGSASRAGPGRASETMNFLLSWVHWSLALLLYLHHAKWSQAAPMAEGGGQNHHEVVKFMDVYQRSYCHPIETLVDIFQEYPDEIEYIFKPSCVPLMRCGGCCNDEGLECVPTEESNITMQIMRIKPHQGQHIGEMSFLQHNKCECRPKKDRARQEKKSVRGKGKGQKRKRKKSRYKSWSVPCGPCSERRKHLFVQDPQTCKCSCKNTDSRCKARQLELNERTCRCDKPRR

Regarding ATWLPPR peptide, the Kd (usually the free concentration of one partner at which half of the binding sites on the other are occupied at equilibrium, for simple one-to-one binding) in data set [1] was 0.00033 µM.

In the case of SY(SO3)DY(SO3)G peptide, in data set [2], the Kd was 3.1 µM.

In the case of NH2-GGGG-SY(SO3)DY(SO3)GGGG-OH peptide, in data set [3], the Kd is 0.91 µM.
